Results: US20130189283A1 (Amgen, published 2013)
Substitutions are numbered along the chain they refer to. In names and notes the source's numbering stands.

T1: Soluble human IL-17R (huIL-17R-FpH) (human, UniProt Q96F46 33-320)
T1 construct: also called IL-17R extracellular domain
T1 sequence: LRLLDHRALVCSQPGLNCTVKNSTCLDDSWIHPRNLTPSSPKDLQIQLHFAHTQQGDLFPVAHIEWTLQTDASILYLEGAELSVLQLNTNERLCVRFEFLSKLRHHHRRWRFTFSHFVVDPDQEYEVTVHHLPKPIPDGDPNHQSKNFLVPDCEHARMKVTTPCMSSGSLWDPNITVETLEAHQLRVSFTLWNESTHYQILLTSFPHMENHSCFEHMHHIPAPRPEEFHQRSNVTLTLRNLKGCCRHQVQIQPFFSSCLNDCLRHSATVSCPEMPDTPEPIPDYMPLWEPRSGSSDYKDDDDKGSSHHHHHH

B1: Antibody 10183 (antibody, V domains shown)
VH: QVQLQESGPGLVKPSQTLSLTCTVSGGSISSGDYFWSWIRQLPGKGLEWIGHIHNSGTTYYNPSLKSRVTISVDTSKKQFSLRLSSVTAADTAVYYCARDRGGDYAYGMDVWGQGTTVTVSS
VL: EIVLTQSPGTLSLSPGERATLSCRASQGISRSRLAWYQQKPGQAPSLLIYGASSRATGIPDRFSGSGSGTDFTLTISRLEPEDFAVYYCQQFGSSPWTFGQGTKVEIK
B2: Antibody 4341 (antibody, human IgG1, kappa, V domains shown)
VH: B1 VH
VL: EIVLTQSPGTLSLSPGERATLSCRASQGISRSELAWYQQKPGQAPSLLIYGASSRATGIPDRFSGSGSGTDFTLTISRLEPEDFAVYYCQQFGSSPWTFGQGTKVEIKR
notes: also called LC:Y53E)
B3: Antibody 10184 (antibody, V domains shown)
VH: B1 VH with A106R
VL: B1 VL
B4: Antibody 4241 (antibody, human IgG1, kappa, V domains shown)
VH: B1 VH with A106E
VL: B2 VL with E33A
notes: also called LC:Y53A)
B5: Antibody 16435 (antibody, human IgG2, kappa, V domains shown)
VH: QVQLVQSGAEVKKPGASVKVSCKASGYTFTRYGISWVRQAPGQGLEWMGWISTYSGNTNYAQKLQGRVTMTTDTSTSTAYMELRSLRSDDTAVYYCARAQLYFDYWGQGTLVTVSS
VL: EIVMTQSPATLSVSPGERATLSCRASQSVSSNLAWFQQKPGQAPRLLIYDASTRATGVPARFSGSGSGTEFTLTISSLQSEDFAVYYCQQYDNWPLTFGGGTKVEIKR
notes: also called LC: P66L, D90E
B6: Antibody 16438 (antibody, V domains shown)
VH: B5 VH with A99R, L101Q
VL: EIVMTQSPATLSVSPGERATLSCRASQSVSSNLAWFQQKPGQAPRLLIYDASTRATGVPARFSGSGSGTEFTLTISSLQSEDFAVYYCQQYDNWPLTFGGGTKVEIK
B7: Antibody 16444 (antibody, human IgG2, kappa, V domains shown)
VH: B5 VH with L101Q
VL: B5 VL with W94A
notes: also called LC: P66L, D90E, W114A
B8: Antibody 16441 (antibody, V domains shown)
VH: B5 VH with L101Q
VL: B6 VL
B9: Antibody 16440 (antibody, V domains shown)
VH: B5 VH with L101Q
VL: B6 VL with L46P, E70D
B10: Antibody 16439 (antibody, V domains shown)
VH: B5 VH with A99R, L101Q
VL: B6 VL with W94A

What follows are binders tested against T2, Soluble human TR2 (huTR2 long-huFc (IgG1)) (human) (assay: BIAcore solution equilibrium assay: antibody incubated with TR2, free TR2 read on immobilised antibody 16449).
T2 construct: also called Trail Receptor 2; TRAIL (huTR2)
T2 sequence (chain, as listed by the source limits assumed): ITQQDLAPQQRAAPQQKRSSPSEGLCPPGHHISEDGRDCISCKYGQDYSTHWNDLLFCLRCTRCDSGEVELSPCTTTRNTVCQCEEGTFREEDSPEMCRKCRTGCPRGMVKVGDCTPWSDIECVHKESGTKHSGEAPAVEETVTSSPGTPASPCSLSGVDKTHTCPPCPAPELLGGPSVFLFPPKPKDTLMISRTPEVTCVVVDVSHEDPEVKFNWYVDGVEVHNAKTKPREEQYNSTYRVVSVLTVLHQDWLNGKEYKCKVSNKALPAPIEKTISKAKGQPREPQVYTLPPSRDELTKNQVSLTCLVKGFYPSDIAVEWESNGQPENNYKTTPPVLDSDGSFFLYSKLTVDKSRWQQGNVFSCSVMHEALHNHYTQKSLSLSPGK
B1: no binding (tested: 50 µM antibody with 10 nM TR2). B2: no binding (tested: 50 µM antibody with 10 nM TR2). B3: no binding (tested: 50 µM antibody with 10 nM TR2). B4: no binding (tested: 50 µM antibody with 10 nM TR2).

The binders below were run against T1, Soluble human IL-17R (huIL-17R-FpH) (assay: BIAcore solution equilibrium assay: antibody incubated with IL-17R, free IL-17R read on immobilised antibody 16429).
B5: no binding (tested: 30 µM antibody with 30 nM IL-17R). B6: no binding (tested: 30 µM antibody with 30 nM IL-17R). B7: no binding (tested: 30 µM antibody with 30 nM IL-17R). B8: no binding (tested: 30 µM antibody with 30 nM IL-17R). B9: no binding (tested: 30 µM antibody with 30 nM IL-17R). B10: no binding (tested: 30 µM antibody with 30 nM IL-17R).
